According to patent US20110274653A1, “DENDRITIC CELL IMMUNORECEPTORS (DCIR)-MEDIATED CROSSPRIMING OF HUMAN CD8+ T CELLS” (priority 2010, published 2011):

B1: CD40L: CD40 ligand (R&D; 100 ng/ml) used as DC activator (protein, UniProt P29965 113-261, looked up)
CD40 ligand, soluble form: MQKGDQNPQIAAHVISEASSKTTSVLQWAEKGYYTMSNNLVTLENGKQLTVKRQGLYYIYAQVTFCSNREASSQAPFIASLCLKSPGRFERILLRAANTHSSAKPCGQQSIHLGGVFELQPGASVFVNVTDPSQVSHGTGFTSFGLLKL

How the values were obtained:
[1] = system: naïve CD8^+ T cells; test: Quality of primed CD8+ T cells (effector molecules, cytokines) by DC activator; assay type: cell-based, human; conditions: IFN-α DCs targeted with anti-DCIR-MART-1, Luminex, FIG. 7F
Method: Expansion of antigen-specific T cells in DC/T cell coculture: To assess the function of DCs in presenting FluMP- or MART-1-derived antigens, the present inventors used DCs from HLA-A201^+ donors. Cells were cultured with conjugates mAbs at the indicated concentration. Syngeneic purified CD8^+ T cells were cultured with the antigen-pulsed DCs at a DC/T ratio 1:20. CD40L (100 ng/ml; R&D) was added to the culture after 24 h to enhance crosspresentation by DCs^49. The cocultures were incubated at 37° C. for 8-10 days. IL-2 was added at 10 U/ml at day 3. Where indicated, DCs were activated with TLR agonists: LPS (10, 50 or 200 ng/ml; […]; Invivogen). The expansion of FluMP-, MART-1-, and HIV gag p24-specific CD8^+ T cells was evaluated using HLA-A201-FluMP (58-66) peptide ([…]) (SEQ ID NO: 1), HLA-A201-MART-1 (26-35) peptide ([…]) (SEQ ID NO: 2) and HLA-A201-p24 (151-155) peptide ([…]) (SEQ ID NO: 3)-tetramers, respectively (Beckman Coulter). For the assessment of crosspriming to multiple CD8^+ T cell-specific epitopes, CD34^+-derived DCs were incubated with anti-DCIR-p24 or IgG4-p24 fusion mAbs and cultured with CFSE-labeled CD8^+ T cells at a DC/T ratio 1:30. […] The secreted IFN-γ was measured in the culture supernatants by Luminex. […] Secretion of IFN-γ, TNF-α, IL-12p40, IL-4, IL-5 and IL-13 were measured in the supernatant after 40 h by Luminex. […]

[2] = system: blood HLA-A201^+ mDCs; assay type: cell-based, human; conditions: mDCs targeted with anti-DCIR.doc-coh.FluMP; Poly I:C 5 μg/ml, LPS 50 ng/ml, CL075 1 μg/ml
Method: The specific-FluMP CD8^+ T cell response was measured after 8-10 days using HLA-A201-FluMP (58-66) tetramer.

[3] = system: CD1a^+ LCs; test: DCIR-signaling effect on DC phenotype and activation (surface markers, cytokines); conditions: stimulated 24 h
Method: DCIR-signaling effect on DC-function: CD34^+-derived DCs were cultured in anti-DCIR (clone 24A5 or 9E8) or isotype control coated plates in the presence or absence of CD40L (R&D; 100 ng/ml) or LPS (Invivogen; 50 ng/ml). After 24 h, cells were harvested and stained for surface phenotype. The secreted cytokines were analyzed by a multiplex bead assay (Luminex).

Row | Molecule | cytokines of DCIR-primed CD8^+ T cells according to the DC activator [1] | effect of TLR agonist on FluMP-specific CD8^+ T cell response [2] | Mean fluorescence expression of CD40 [3] | Mean fluorescence expression of CD80 [3] | Mean fluorescence expression of CD86 [3] | Mean fluorescence expression of HLA-ABC [3] | Mean fluorescence expression of HLA-DR [3] | Mean fluorescence expression of ICOS-L [3]
1 | CCCc1nc2c(N)nc3ccccc3c2s1 [CL075, reference compound] | preferentially secrete IFN-γ and TNF-α with markedly reduced amounts of IL-4, IL-5 and IL-13 | – | – | – | – | – | – | –
2 | Poly I:C | – | enhanced the FluMP-specific responses at low concentration of the targeting complex | – | – | – | – | – | –
3 | B1 | high amounts of type 2 cytokines (IL-4, IL-5 and IL-13) | – | 31.8 | 241.0 | 294.0 | 108.0 | 1018.000 | 69.800
